Results published in article PMC8792015, “The MuvB complex binds and stabilizes nucleosomes downstream of the transcription start site of cell-cycle dependent genes”.

Target: MuvB complex (LIN9 94-542, LIN37, LIN52, LIN54 504-749, RBAP48) (Homo sapiens, UniProt Q5TKA1;Q96GY3;Q52LA3;Q6MZP7;Q09028 94-542;1-246;1-112;504-749;1-425)
Assay: fluorescence polarization; Kd value only in figure table; FP nucleosomes/601: 50 mM Tris pH 7.5, 150 mM NaCl, 1 mM DTT, 0.1% Tween-20, 20 nM probe (stated for peptide); FP TTK: 20 nM DNA, 20 mM Tris pH 8.0, 150 mM NaCl, 0.1% Tween-20; temperature not stated
Conditions: protein: recombinant; tags: GST/Strep/His tags removed by TEV; copies: 1;1;1;1;1; label: fluorescein

B1: TTK promoter 40-bp fragment (dsDNA)
DNA 1: GTGATAGCGACGGGGAAATTCAAACGTGTTTGCGGAAAGG
DNA 2: CCTTTCCGCAAACACGTTTGAATTTCCCCGTCGCTATCAC
binding result: binds
